Experimental data from US20220251222A1 (Johns Hopkins, published 2022).

Columns and labels:
[1] = biological target: T1, IL-6Rα expressed on lentivirally transduced HEK 293T cells (UniProt P08887 20-468, limits assumed); assay: flow cytometry binding titration on IL-6R+/IL-8R- HEK 293T cells, detected with FITC anti-human IgG1
T1 construct: whole, on cells; also called IL-6Rα^+ cells; IL-6Rα^+/IL-8R^- HEK 293T cells
T1 sequence (looked up): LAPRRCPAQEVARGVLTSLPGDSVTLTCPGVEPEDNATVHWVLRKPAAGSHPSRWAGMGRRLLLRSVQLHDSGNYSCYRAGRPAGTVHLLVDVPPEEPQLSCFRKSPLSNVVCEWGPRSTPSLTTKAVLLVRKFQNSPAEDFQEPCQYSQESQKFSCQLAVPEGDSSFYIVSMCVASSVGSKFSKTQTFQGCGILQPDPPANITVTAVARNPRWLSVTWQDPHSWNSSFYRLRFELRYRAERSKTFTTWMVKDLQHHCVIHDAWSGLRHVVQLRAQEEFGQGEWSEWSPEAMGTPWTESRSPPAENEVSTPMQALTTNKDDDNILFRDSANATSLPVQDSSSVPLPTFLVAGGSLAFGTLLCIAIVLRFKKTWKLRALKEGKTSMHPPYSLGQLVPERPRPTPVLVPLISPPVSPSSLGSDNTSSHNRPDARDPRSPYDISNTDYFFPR
Description: (§1) HEK 293T cells were cultured in Dulbecco's modified Eagle's medium (DMEM, Mediatech) supplemented with 10% (Hyclone), 2 mM L-glutamine and 100 U/mL penicillin-streptomycin (Gibco). For surface binding assays, IL-6Rα⁺/IL-8R⁻, IL-6Rα⁻/IL-8R⁺, IL-6Rα⁺/IL-8R⁺, and […] HEK 293T cells were trypsinized for detachment, resuspended in PBSA, and then aliquoted into 96-well plates (1×10⁵ cells per well). Cells were incubated with titrations of various monoclonal or bispecific antibodies for 2 hr at 4° C. with rotation. Cells were then washed and incubated with a 1:50 dilution of fluorescein isothiocyanate (FITC)-conjugated anti-human IgG1 antibody (Sigma-Aldrich, Clone 8c/6-39) in PBSA for 15 min at 4° C. After a final wash, cells were resuspended in PBSA and analyzed on a CytoFLEX flow cytometer (Beckman Coulter). Binding isotherms were fitted to a first-order logistic model and KD values were calculated using GraphPad Prism data analysis software. Mean fluorescence intensity (MFI) of unstimulated cells was subtracted. […]
(§2) To determine whether engineered bispecific binding agents BS1 and BS2 specifically engage target antigens in a physiologically relevant context, antibody binding to IL-6Rα⁺/IL-8R⁻, IL-6Rα⁻/IL-8R⁺, IL-6Rα⁺/IL-8R⁺, and IL-6Rα⁻/IL-8R⁻ lentivirally transduced HEK 293T cells was measured via flow cytometry. […]

[2] = biological target: T2, IL-8RB expressed on lentivirally transduced HEK 293T cells (UniProt P25025 1-360, limits assumed); assay: flow cytometry binding titration on IL-6R-/IL-8R+ HEK 293T cells, detected with FITC anti-human IgG1
T2 construct: whole, on cells; also called IL-8R^+ cells; IL-6Rα^-/IL-8R^+ HEK 293T cells
T2 sequence (looked up): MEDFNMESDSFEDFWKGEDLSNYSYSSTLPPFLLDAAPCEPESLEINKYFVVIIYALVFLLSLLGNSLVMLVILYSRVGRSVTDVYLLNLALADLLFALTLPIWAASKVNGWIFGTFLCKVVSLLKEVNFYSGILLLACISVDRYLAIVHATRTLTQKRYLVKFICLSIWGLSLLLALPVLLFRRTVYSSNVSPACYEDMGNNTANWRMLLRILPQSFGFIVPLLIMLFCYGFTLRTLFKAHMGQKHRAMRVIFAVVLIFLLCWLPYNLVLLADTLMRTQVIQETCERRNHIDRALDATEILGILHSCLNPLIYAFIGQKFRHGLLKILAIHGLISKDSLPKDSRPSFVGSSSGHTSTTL
Description: as §1, §2

[3] = biological target: T3, human IL-6Rα extracellular domain (ECD), residues 89-303 of the mature protein, with C-terminal biotin … (human, UniProt P08887 108-322, biotinylated with BirA ligase on the biotin acceptor peptide); assay: BLI equilibrium titration, biotinylated IL-6Rα ECD on streptavidin tips; bivalent IgG, BLI on recombinant IL-6Rα
T3 construct: range 89-303; The range 89-303 counts on the mature protein, not on the precursor; Any linkers between the ECD, BAP and His tag are not described; also called IL-6Rα ECD; recombinant IL-6Rα
T3 sequence: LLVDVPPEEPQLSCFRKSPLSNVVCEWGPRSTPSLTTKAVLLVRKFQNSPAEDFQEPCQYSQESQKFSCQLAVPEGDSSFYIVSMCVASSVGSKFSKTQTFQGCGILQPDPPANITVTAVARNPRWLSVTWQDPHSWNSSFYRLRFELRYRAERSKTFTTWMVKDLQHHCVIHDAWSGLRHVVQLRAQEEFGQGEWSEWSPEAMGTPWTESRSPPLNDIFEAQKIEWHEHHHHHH
Description: Biotinylated human IL-6Rα ECD was immobilized to streptavidin-coated tips for analysis on an Octet® Red96 BLI instrument (ForteBio). Less than 5 signal units (nm) of receptor was immobilized to minimize mass transfer effects. Tips were exposed to serial dilutions of the anti-IL-6R antibody tocilizumab, the anti-IL-8R antibody 10H2, BS1, or BS2 in a 96-well plate for 300 s and dissociation was measured for 600 s. Surface regeneration for all interactions was conducted using 15 s exposure to 0.1 M glycine pH 3.0. Experiments were carried out in PBSA (phosphate-buffered saline [PBS] pH 7.3 plus 0.1% bovine serum albumin [BSA, Thermo]) at 25° C. Data was visualized and processed using the Octet® Data Analysis software version 7.1 (ForteBio). Equilibrium titration curve fitting and equilibrium dissociation constant (KD) value determination was implemented in GraphPad Prism software using a first-order logistic model. Experiments were reproduced two times with similar results.
To confirm functionality of our bispecific agents, antibodies were titrated against recombinant IL-6Rα via BLI. […] Moreover, both tocilizumab-containing engineered bispecific binding agents also bound IL-6Rα (FIG. 5).

[4] = biological target: T1, IL-6Rα expressed on lentivirally …; assay: flow cytometry titration on IL-6Rα+/IL-8R+ HEK 293T cells; IL-6Rα+/IL-8R+ 293T cells (FIG. 7C)
Description: as §1, §2

B1: tocilizumab, recombinant monoclonal hIgG1 (anti-IL-6Rα) (antibody, V domains shown)
VH: EVQLQESGPGLVRPSQTLSLTCTVSGYSITSDHAWSWVRQPPGRGLEWIGYISYSGITTYNPSLKSRVTMLRDTSKNQFSLRLSSVTAADTAVYYCARSLARTTAMDYWGQGSLVTVSS
VL: DIQMTQSPSSLSASVGDRVTITCRASQDISSYLNWYQQKPGKAPKLLIYYTSRLHSGVPSRFSGSGSGTDFTFTISSLQPEDIATYYCQQGNTLPYTFGQGTKVEIK
notes: also called anti-IL-6Rα antibody
- EC50 (read off the curve) [1]: ~3 nM
- binding result [2]: no binding (tested: 1e-6 M)
- Kd [3]: 28 nM
- Kd [4]: 3.1 nM
